Data published in patent US12679878B2, “CRF2 receptor agonists and their use in therapy” (SANOFI, priority 2020, dated 2026).
Starred links: 1 amine or outer side, 2 acyl side, 3 side chain; linkers in the order of their positions; H or OH if unused. Non-standard residues stand in square brackets, D forms with d. Groups on a side chain read outwards from the residue. No end group written: not given here. *: point of attachment. C18 diacid = O=C(O)CCCCCCCCCCCCCCCCC(=O)*; γGlu = O=C(O)[C@H](CCC(=O)[*:2])N[*:1]; Palmitoyl = CCCCCCCCCCCCCCCC(=O)*; AEEA = NCCOCCOCC(=O)O; Aib = CC(C)(N)C(=O)O

B1: SEQ ID NO: 123 (peptide)
peptide: IVLSLDVPIKLK([AEEA-AEEA-γGlu-C18 diacid])QILLEQARQK[Aib]QRAQAEKNKRILERV-NH2
modifications: N-terminus assumed
SMILES: CC[C@H](C)[C@H](N)C(=O)N[C@H](C(=O)N[C@@H](CC(C)C)C(=O)N[C@@H](CO)C(=O)N[C@@H](CC(C)C)C(=O)N[C@@H](CC(=O)O)C(=O)N[C@H](C(=O)N1CCC[C@H]1C(=O)N[C@H](C(=O)N[C@@H](CCCCN)C(=O)N[C@@H](CC(C)C)C(=O)N[C@@H](CCCCNC(=O)COCCOCCNC(=O)COCCOCCNC(=O)CC[C@H](NC(=O)CCCCCCCCCCCCCCCCC(=O)O)C(=O)O)C(=O)N[C@@H](CCC(N)=O)C(=O)N[C@H](C(=O)N[C@@H](CC(C)C)C(=O)N[C@@H](CC(C)C)C(=O)N[C@@H](CCC(=O)O)C(=O)N[C@@H](CCC(N)=O)C(=O)N[C@@H](C)C(=O)N[C@@H](CCCNC(=N)N)C(=O)N[C@@H](CCC(N)=O)C(=O)N[C@@H](CCCCN)C(=O)NC(C)(C)C(=O)N[C@@H](CCC(N)=O)C(=O)N[C@@H](CCCNC(=N)N)C(=O)N[C@@H](C)C(=O)N[C@@H](CCC(N)=O)C(=O)N[C@@H](C)C(=O)N[C@@H](CCC(=O)O)C(=O)N[C@@H](CCCCN)C(=O)N[C@@H](CC(N)=O)C(=O)N[C@@H](CCCCN)C(=O)N[C@@H](CCCNC(=N)N)C(=O)N[C@H](C(=O)N[C@@H](CC(C)C)C(=O)N[C@@H](CCC(=O)O)C(=O)N[C@@H](CCCNC(=N)N)C(=O)N[C@H](C(N)=O)C(C)C)[C@@H](C)CC)[C@@H](C)CC)[C@@H](C)CC)C(C)C)C(C)C
B2: SEQ ID NO: 121 (peptide)
peptide: IVLSLDVPIKLK([AEEA-AEEA-γGlu-C18 diacid])QILLKQERQKKQREKAEKNKQILAQV-NH2
modifications: N-terminus assumed
SMILES: CC[C@H](C)[C@H](N)C(=O)N[C@H](C(=O)N[C@@H](CC(C)C)C(=O)N[C@@H](CO)C(=O)N[C@@H](CC(C)C)C(=O)N[C@@H](CC(=O)O)C(=O)N[C@H](C(=O)N1CCC[C@H]1C(=O)N[C@H](C(=O)N[C@@H](CCCCN)C(=O)N[C@@H](CC(C)C)C(=O)N[C@@H](CCCCNC(=O)COCCOCCNC(=O)COCCOCCNC(=O)CC[C@H](NC(=O)CCCCCCCCCCCCCCCCC(=O)O)C(=O)O)C(=O)N[C@@H](CCC(N)=O)C(=O)N[C@H](C(=O)N[C@@H](CC(C)C)C(=O)N[C@@H](CC(C)C)C(=O)N[C@@H](CCCCN)C(=O)N[C@@H](CCC(N)=O)C(=O)N[C@@H](CCC(=O)O)C(=O)N[C@@H](CCCNC(=N)N)C(=O)N[C@@H](CCC(N)=O)C(=O)N[C@@H](CCCCN)C(=O)N[C@@H](CCCCN)C(=O)N[C@@H](CCC(N)=O)C(=O)N[C@@H](CCCNC(=N)N)C(=O)N[C@@H](CCC(=O)O)C(=O)N[C@@H](CCCCN)C(=O)N[C@@H](C)C(=O)N[C@@H](CCC(=O)O)C(=O)N[C@@H](CCCCN)C(=O)N[C@@H](CC(N)=O)C(=O)N[C@@H](CCCCN)C(=O)N[C@@H](CCC(N)=O)C(=O)N[C@H](C(=O)N[C@@H](CC(C)C)C(=O)N[C@@H](C)C(=O)N[C@@H](CCC(N)=O)C(=O)N[C@H](C(N)=O)C(C)C)[C@@H](C)CC)[C@@H](C)CC)[C@@H](C)CC)C(C)C)C(C)C
B3: SEQ ID NO: 122 (peptide)
peptide: IVLSLDVPIKLK([AEEA-AEEA-γGlu-C18 diacid])QILLKQERQKKQRQQAEKNKQILAQV-NH2
modifications: N-terminus assumed
SMILES: CC[C@H](C)[C@H](N)C(=O)N[C@H](C(=O)N[C@@H](CC(C)C)C(=O)N[C@@H](CO)C(=O)N[C@@H](CC(C)C)C(=O)N[C@@H](CC(=O)O)C(=O)N[C@H](C(=O)N1CCC[C@H]1C(=O)N[C@H](C(=O)N[C@@H](CCCCN)C(=O)N[C@@H](CC(C)C)C(=O)N[C@@H](CCCCNC(=O)COCCOCCNC(=O)COCCOCCNC(=O)CC[C@H](NC(=O)CCCCCCCCCCCCCCCCC(=O)O)C(=O)O)C(=O)N[C@@H](CCC(N)=O)C(=O)N[C@H](C(=O)N[C@@H](CC(C)C)C(=O)N[C@@H](CC(C)C)C(=O)N[C@@H](CCCCN)C(=O)N[C@@H](CCC(N)=O)C(=O)N[C@@H](CCC(=O)O)C(=O)N[C@@H](CCCNC(=N)N)C(=O)N[C@@H](CCC(N)=O)C(=O)N[C@@H](CCCCN)C(=O)N[C@@H](CCCCN)C(=O)N[C@@H](CCC(N)=O)C(=O)N[C@@H](CCCNC(=N)N)C(=O)N[C@@H](CCC(N)=O)C(=O)N[C@@H](CCC(N)=O)C(=O)N[C@@H](C)C(=O)N[C@@H](CCC(=O)O)C(=O)N[C@@H](CCCCN)C(=O)N[C@@H](CC(N)=O)C(=O)N[C@@H](CCCCN)C(=O)N[C@@H](CCC(N)=O)C(=O)N[C@H](C(=O)N[C@@H](CC(C)C)C(=O)N[C@@H](C)C(=O)N[C@@H](CCC(N)=O)C(=O)N[C@H](C(N)=O)C(C)C)[C@@H](C)CC)[C@@H](C)CC)[C@@H](C)CC)C(C)C)C(C)C
B4: SEQ ID NO: 12 (peptide)
peptide: FTLSLDVPTKIK([γGlu-Palmitoyl])QKLLKQEKQRKQKQQAKTNAKILARV-NH2
modifications: N-terminus assumed
SMILES: CCCCCCCCCCCCCCCC(=O)N[C@@H](CCC(=O)NCCCC[C@H](NC(=O)[C@@H](NC(=O)[C@H](CCCCN)NC(=O)[C@@H](NC(=O)[C@@H]1CCCN1C(=O)[C@@H](NC(=O)[C@H](CC(=O)O)NC(=O)[C@H](CC(C)C)NC(=O)[C@H](CO)NC(=O)[C@H](CC(C)C)NC(=O)[C@@H](NC(=O)[C@@H](N)Cc1ccccc1)[C@@H](C)O)C(C)C)[C@@H](C)O)[C@@H](C)CC)C(=O)N[C@@H](CCC(N)=O)C(=O)N[C@@H](CCCCN)C(=O)N[C@@H](CC(C)C)C(=O)N[C@@H](CC(C)C)C(=O)N[C@@H](CCCCN)C(=O)N[C@@H](CCC(N)=O)C(=O)N[C@@H](CCC(=O)O)C(=O)N[C@@H](CCCCN)C(=O)N[C@@H](CCC(N)=O)C(=O)N[C@@H](CCCNC(=N)N)C(=O)N[C@@H](CCCCN)C(=O)N[C@@H](CCC(N)=O)C(=O)N[C@@H](CCCCN)C(=O)N[C@@H](CCC(N)=O)C(=O)N[C@@H](CCC(N)=O)C(=O)N[C@@H](C)C(=O)N[C@@H](CCCCN)C(=O)N[C@H](C(=O)N[C@@H](CC(N)=O)C(=O)N[C@@H](C)C(=O)N[C@@H](CCCCN)C(=O)N[C@H](C(=O)N[C@@H](CC(C)C)C(=O)N[C@@H](C)C(=O)N[C@@H](CCCNC(=N)N)C(=O)N[C@H](C(N)=O)C(C)C)[C@@H](C)CC)[C@@H](C)O)C(=O)O

The binders below were run against human corticotropin-releasing factor 2α (CRF2 α receptor) (human), Q13324 (assay: cell-based or functional assay).
Chain of human corticotropin-releasing factor 2α (CRF2 α receptor) (human), Q13324 (Q13324 20-411): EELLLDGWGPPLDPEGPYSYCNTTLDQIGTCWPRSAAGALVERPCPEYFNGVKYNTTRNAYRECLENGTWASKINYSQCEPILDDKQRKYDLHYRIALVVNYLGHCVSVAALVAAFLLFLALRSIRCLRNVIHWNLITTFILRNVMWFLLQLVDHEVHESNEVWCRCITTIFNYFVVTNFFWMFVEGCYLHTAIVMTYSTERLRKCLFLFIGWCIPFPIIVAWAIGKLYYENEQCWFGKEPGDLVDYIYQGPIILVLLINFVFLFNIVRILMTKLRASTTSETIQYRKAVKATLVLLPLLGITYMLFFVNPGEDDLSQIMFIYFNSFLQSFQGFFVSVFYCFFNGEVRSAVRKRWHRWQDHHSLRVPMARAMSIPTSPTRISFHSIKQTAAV
B1 gave an EC50 [nM], 0% HSA of 0.33 nM and an EC50 [nM], 0.1% HSA of 9.74 nM.
Binder B2 has an EC50 [nM], 0% HSA of 0.73 nM and an EC50 [nM], 0.1% HSA of 41.3 nM.
Binder B3 has an EC50 [nM], 0% HSA of 0.04 nM and an EC50 [nM], 0.1% HSA of 1.71 nM.
B4 showed an EC50 [nM], 0% HSA of 0.09 nM.
